Measurements reported in US20170081379A1 (Dana-Farber, published 2017).
Bridge positions count the residues as written; N and C are the ends. Square brackets hold non-standard residues; d marks the D form. R8 = C=CCCCCCC[C@@](C)(N)C(=O)O; S5 = C=CCCC[C@](C)(N)C(=O)O

Biological target: T1, recombinant HDM2 17-125 (human, UniProt Q00987 17-125)
T1 construct: range 17-125
Test: fluorescence polarization competition: unlabeled peptide titrated against FITC-WT p53 14-29 (25 nM) bound to HDM2 17-125
Description: (§1) FIG. 12 Competition by fluorescence polarization. Fluoresceinated, wild type p53₁₄₋₂₉ (25 nM) was incubated with recombinant HDM2₁₇₋₁₂₅. Unlabeled SAH-p53s were titrated into the mixture, and displacement of the labeled ligand was measured by fluorescence polarization.
as §1, with “The ability of various SAH-p53s to compete with wild-type p53₁₄₋₂₉ for binding to HDM2₁₇₋₁₂₅ was assessed as follows.” for “FIG. 12 Competition by fluorescence polarization.”

B1: SAH-p53-4 (peptide)
peptide: Ac-LSQETF[R8]DLWKLL[S5]EN-NH2
modifications: staple 7-14
notes: the FITC-labeled form is m4; also called unlabeled SAH-p53-4; Ac-SAH-p53-4
  binding result: binds
